The values below come from publication PMC12990809.

Common to all, as to experiment: pulldown
Holding throughout (conditions): 20 nM protein, 1.5 uM RNA pool; 20 mM HEPES pH 7.8, 70 mM KCl, 10 mM NaCl, 10% glycerol, 2 mM DTT, 0.1 ug/uL BSA; 30 min, 4 C

In series [1] the target is T1, LmjF.30.2180 (Leishmania major) (UniProt Q4Q775).
T1 sequence: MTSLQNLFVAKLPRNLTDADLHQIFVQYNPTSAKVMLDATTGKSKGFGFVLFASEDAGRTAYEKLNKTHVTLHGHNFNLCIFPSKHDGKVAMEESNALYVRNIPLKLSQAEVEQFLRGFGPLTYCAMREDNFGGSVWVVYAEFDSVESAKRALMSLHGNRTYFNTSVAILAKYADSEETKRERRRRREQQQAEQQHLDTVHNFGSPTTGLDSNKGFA

For series [2], the target named is T2, LmjF.33.1450 (Leishmania major) (UniProt Q4Q442).
T2 sequence: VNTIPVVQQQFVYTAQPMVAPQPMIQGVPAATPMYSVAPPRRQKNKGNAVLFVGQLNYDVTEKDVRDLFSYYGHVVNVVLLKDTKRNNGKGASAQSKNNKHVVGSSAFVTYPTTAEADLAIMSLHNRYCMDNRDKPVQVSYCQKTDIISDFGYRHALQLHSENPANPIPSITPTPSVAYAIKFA

For series [3], the target named is T3, SCHCODRAFT_35516 S109T;I250V (Schizophyllum commune) (UniProt A0ACF2EGB7).
T3 sequence: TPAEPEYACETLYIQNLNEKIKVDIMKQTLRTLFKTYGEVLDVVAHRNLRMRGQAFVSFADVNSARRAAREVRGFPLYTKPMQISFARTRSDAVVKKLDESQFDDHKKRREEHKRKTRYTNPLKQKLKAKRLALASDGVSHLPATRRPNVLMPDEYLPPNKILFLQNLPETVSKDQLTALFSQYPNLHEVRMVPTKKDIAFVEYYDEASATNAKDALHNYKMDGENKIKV

The target of series [4] is T4, LmjF.25.0500 (Leishmania major) (UniProt Q4QA45).
T4 sequence: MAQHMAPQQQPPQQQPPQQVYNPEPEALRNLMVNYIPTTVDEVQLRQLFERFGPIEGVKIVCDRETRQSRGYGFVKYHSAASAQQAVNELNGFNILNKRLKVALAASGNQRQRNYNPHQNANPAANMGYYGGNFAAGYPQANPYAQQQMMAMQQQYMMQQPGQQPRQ

Series [5] concerns the target T5, ENSMODG00000011916 (Monodelphis domestica) (UniProt F7E028).
T5 sequence: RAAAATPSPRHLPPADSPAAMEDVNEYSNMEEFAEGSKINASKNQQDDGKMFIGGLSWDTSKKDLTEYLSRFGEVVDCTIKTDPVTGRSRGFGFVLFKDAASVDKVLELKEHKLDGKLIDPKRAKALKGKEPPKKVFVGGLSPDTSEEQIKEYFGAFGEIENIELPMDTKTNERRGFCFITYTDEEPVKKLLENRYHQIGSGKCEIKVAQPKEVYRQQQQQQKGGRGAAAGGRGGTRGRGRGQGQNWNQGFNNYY

In series [6] the target is T6, CG1316 G229S (Drosophila melanogaster) (UniProt Q7JRD2).
T6 sequence: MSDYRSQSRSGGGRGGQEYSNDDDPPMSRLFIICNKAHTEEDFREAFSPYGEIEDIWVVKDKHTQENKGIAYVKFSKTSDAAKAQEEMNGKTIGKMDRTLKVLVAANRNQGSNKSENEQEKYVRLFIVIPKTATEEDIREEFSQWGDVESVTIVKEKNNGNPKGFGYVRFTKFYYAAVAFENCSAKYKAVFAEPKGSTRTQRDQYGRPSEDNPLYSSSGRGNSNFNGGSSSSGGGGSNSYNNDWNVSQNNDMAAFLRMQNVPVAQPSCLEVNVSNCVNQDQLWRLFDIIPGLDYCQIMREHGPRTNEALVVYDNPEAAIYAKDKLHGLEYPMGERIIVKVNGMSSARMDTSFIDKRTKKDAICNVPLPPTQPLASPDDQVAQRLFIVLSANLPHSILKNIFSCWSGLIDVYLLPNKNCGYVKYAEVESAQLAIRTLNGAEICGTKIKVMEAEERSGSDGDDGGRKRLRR

Series [7] has as its target T7, LmjF.29.1360 (Leishmania major) (UniProt E9ADZ5).
T7 sequence: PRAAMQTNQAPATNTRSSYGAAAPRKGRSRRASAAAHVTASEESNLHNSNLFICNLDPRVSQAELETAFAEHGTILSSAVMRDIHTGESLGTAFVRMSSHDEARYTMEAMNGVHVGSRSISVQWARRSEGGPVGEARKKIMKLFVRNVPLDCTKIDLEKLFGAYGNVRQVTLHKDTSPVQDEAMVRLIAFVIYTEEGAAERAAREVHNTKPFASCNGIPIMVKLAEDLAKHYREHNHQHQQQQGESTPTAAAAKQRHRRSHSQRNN

Series [8] addresses estExt_fgenesh1_pg.C_Chr_03.00010087 (Ostreococcus tauri) (UniProt A0A096P7J9).
Series [9] addresses T8, LmjF.34.4560 (Leishmania major) (UniProt Q4Q285).
T8 sequence: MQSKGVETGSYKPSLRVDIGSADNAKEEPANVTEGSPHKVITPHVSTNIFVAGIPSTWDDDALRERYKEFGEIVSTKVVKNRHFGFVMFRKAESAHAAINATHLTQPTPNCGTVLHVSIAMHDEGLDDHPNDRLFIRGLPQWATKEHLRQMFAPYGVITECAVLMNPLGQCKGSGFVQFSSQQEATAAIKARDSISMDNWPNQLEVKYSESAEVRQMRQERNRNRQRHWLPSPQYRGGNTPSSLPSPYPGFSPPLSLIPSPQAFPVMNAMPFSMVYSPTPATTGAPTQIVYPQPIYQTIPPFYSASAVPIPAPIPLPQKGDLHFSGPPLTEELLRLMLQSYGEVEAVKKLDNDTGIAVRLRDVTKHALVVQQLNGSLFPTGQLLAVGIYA

estExt_fgenesh1_pg.C_Chr_03.00010087 (Ostreococcus tauri), sequence (A0A096P7J9 entry or part of it): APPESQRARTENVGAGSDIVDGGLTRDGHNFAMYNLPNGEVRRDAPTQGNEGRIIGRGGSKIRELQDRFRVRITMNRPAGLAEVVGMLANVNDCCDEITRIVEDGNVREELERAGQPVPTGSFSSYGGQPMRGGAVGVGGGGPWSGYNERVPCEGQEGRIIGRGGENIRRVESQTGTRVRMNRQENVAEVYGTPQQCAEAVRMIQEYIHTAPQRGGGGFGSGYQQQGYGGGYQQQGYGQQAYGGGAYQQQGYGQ

On to UCAAAA [RNAcompete motif RNCMPT00715], for which the binding signal (z-score (mean of top ten 7-mers)) in [1] amounted to 22.8.
In series [2], UUGCAGU [RNAcompete motif RNCMPT00717] displayed a binding signal (z-score (mean of top ten 7-mers)) of 21.8.
For UAGCACA [RNAcompete motif RNCMPT00725], in series [3], the binding signal (z-score (mean of top ten 7-mers)) was 10.8.
On to UAGUUU [RNAcompete motif RNCMPT00689], for which, in [4], the binding signal (z-score (mean of top ten 7-mers)) was found to be 11.6.
AGAUAAA [RNAcompete motif RNCMPT00707] came in with a binding signal (z-score (mean of top ten 7-mers)) in series [5] of 8.36.
Regarding GACNGAC [RNAcompete motif RNCMPT00698], the binding signal (z-score (mean of top ten 7-mers)) in series [6] is 10.1.
Consider UAUAGU [RNAcompete motif RNCMPT00714], for which the binding signal (z-score (mean of top ten 7-mers)) in series [7] came to 20.4.
ACGCGA [RNAcompete motif RNCMPT00694]: the binding signal (z-score (mean of top ten 7-mers)) in series [8] is 10.9.
In turn, ACAACU [RNAcompete motif RNCMPT00691] gave a binding signal (z-score (mean of top ten 7-mers)) in series [9] of 18.4.
